What all share (test): two-hybrid; mammalian two-hybrid in HEK-293 cells; GAL4-ASK1 fragments in pBIND, VP16-Nef in pACT, pG5luc reporter; firefly luciferase/Renilla 48 hrs after transfection, fold over the pACT-pBIND negative control
The target of assay [1] is ASK1 (1-1051 aa), GAL4 fusion (UniProt Q99683).
For assay [2] the target is unchanged. The source holds these as a separate data set.
Assay [3] deals with ASK1 (1-345 aa), GAL4 fusion (UniProt Q99683).
Assay [4] addresses ASK1 (861-1051 aa), GAL4 fusion (UniProt Q99683).
Assay [5] deals with ASK1 (1-1051 aa), GAL4 fusion (UniProt Q99683). This is another data set of the same source.
The target in assay [6] is ASK1 (1-904 aa), GAL4 fusion (UniProt Q99683).
For assay [7], the target named is ASK1 (1-1051 aa), GAL4 fusion (UniProt Q99683). The source holds these as a separate data set.
Assay [8] deals with ASK1 (1-904 aa), GAL4 fusion (UniProt Q99683). The source holds these as a separate data set.
In assay [9] the target is ASK1 (319-1051 aa), GAL4 fusion (UniProt Q99683).

Where two headings read alike, the source gives them in different places.

“HIV-1 Nef (57-174 aa), VP16 fusion (domain or fragment)” returned a fold increase in luciferase/renilla over pACT-pBIND in [1] of 81.7 fold.

Take “HIV-1 Nef core domain (57-207 aa), VP16 fusion (domain or fragment)”: the fold increase in luciferase/renilla over pACT-pBIND in assay [2] is 156 fold; in assay [3], 2.05 fold; in assay [4] it was 2.93 fold; in assay [5], 162 fold; in [6] it was 9.15 fold; in assay [1] it was 153 fold. For the same substance, the results for the fold increase in luciferase/renilla over pACT-pBIND in [7], in assay [8] and in assay [9] were 157 fold, 8.75 fold and 2.83 fold, respectively.

Values taken from paper PMC3683068.
